The target of data set [1] is T1, RsHMT (Raphanus sativus, UniProt C6L2E7).
T1 sequence (C6L2E7 1-226): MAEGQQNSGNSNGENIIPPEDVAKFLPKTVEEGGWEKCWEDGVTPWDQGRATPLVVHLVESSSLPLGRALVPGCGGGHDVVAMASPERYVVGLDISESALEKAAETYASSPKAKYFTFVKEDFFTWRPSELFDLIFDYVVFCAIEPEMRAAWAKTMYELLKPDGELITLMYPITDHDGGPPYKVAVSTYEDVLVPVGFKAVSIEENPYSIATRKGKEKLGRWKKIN
Briefly: alkylation of SAH, specific activity. The class given is biochemical. The note with it: co-substrate SAH.

Data set [2] addresses T2, AtHMT (Arabidopsis thaliana, UniProt Q0WP12, V140T).
T2 sequence (Q0WP12 1-227 V140T): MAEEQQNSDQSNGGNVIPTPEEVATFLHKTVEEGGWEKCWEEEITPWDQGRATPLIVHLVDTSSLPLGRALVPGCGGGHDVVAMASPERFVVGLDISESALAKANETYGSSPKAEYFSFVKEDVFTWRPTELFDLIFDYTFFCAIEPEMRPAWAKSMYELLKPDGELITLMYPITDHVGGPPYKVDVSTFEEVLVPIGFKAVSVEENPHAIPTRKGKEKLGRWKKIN
Briefly: kinetic analysis of methyl transfer to SAH. The note with it: read-out: Methyltransferase activity / K M, MeI; co-substrate SAH. Type of data set: biochemical.

The target in data set [3] is T3, AtHMT (Arabidopsis thaliana, UniProt Q0WP12).
T3 sequence (Q0WP12 1-227): T2 sequence (Q0WP12 1-227 V140T) with T140V
Kind of data set: kinetic analysis of methyl transfer to SAH. The class given is biochemical. The note with it: read-out: Methyltransferase activity / K M, MeI; co-substrate SAH.

Substrate in data set [4]: CCI
Kind of data set: kinetic analysis of ethyl transfer to SAH. The note with it: co-substrate SAH. The class given is biochemical, Arabidopsis thaliana.

Substitutions are numbered along the chain they refer to. Names may count otherwise.

With `CCI` [ethyl iodide], the “alkylation of SAH, specific activity” value in data set [1] is recorded as “all three enzymes had promiscuous activity against ethyl iodide”.

Consider `CI` [methyl iodide], for which the “alkylation of SAH, specific activity” value in data set [1] is listed as “All three HMTs were active using methyl iodide”. In addition, the Km in data set [2] was 4.7 ± 0.76 mM; in data set [3] it was 1.43 ± 0.19 mM.

B1: AtHMT (Arabidopsis thaliana) (protein)
chain: T2 sequence (Q0WP12 1-227 V140T) with T140V
With B1, in data set [4], the Km was 9.36 ± 1.66 mM, the kcat was found to be 0.006 ± 0.0005 s⁻¹ and the catalytic efficiency (kcat/Km) worked out at 0.633 M⁻¹ s⁻¹.

B2: AtHMT (Arabidopsis thaliana; V140T) (protein)
chain: T2 sequence (Q0WP12 1-227 V140T)
Regarding B2, in data set [4], the Km was determined as 11.14 ± 1.52 mM, the kcat was found to be 0.0397 ± 0.00267 s⁻¹ and the kcat/Km came to 3.57 M⁻¹ s⁻¹.

One may read the kcat as the number of substrate molecules converted per active site and unit of time at saturation. Broadly, the kcat/Km is the turnover number divided by the Michaelis constant.

Values taken from article PMC7839550 (Angewandte Chemie (International Ed. in English), 2020).
